Drawing on publication PMC7995010, this text covers stoichiometry N for one substance.

The target of the experiment is ACE2‐Fc produced in glycoengineered ΔXT/FT Nicotiana benthamiana (human) (UniProt Q9BYF1). The experiment is described as follows: SEC-MALS; isolated dimer fraction of ACE2‐Fc; native molecular mass by MALS. In general terms: SEC sorts molecules by how far they enter the pores of the column.

What is called stoichiometry N is a count of units in the complex or per binding partner. For “ACE2‐Fc produced in glycoengineered ΔXT/FT Nicotiana benthamiana (from UniProt Q9BYF1 18-615) (Fc fusion)”, the stoichiometry N turned out to be 2.
